According to article PMC9841417 (Nucleic Acids Research, 2023):

Biological target: the molecule itself
Experiment: SEC

Protein	stoichiometry N
Lhr-CTD (aa 863-1507) R915A-T1100A-D1366A (domain or fragment, Mycobacterium smegmatis, UniProt A0QT91 863-1507, looked up) SPLAERRAAALALDTVLLSELLGRVELRELLDPAVVASTSAQLQHLTPERAAADAEGVADLLRLLGPLTEADIAQRCTADNIGAWLDGLHAAKRALPVTYAGQTWWAAVEDIGLLRDGIGVPVPVGVPAAFTESASDPLGDLIGRYARTRGPFTTEQTAARFGLGVRVASDVLSRMAVDGRLIRGEFAADLSGEQWCDAQVLKILRRRSLAALRAQVEPVSTDAYARFLPSWQHVGSANTTGIDGLATVIEQLAGVPIPASAVESLVFPQRVRDYQPAMLDELLASGEVMWSGAGQIGNGDGWVAFHLADTAPLTLTHGAEIEFTDTHRVILETLGHGGAYFFRQLTDGTVEGTAGQELKQALWELIWAGWVTGDTFAPVRAVLSGPRRSGAPAHRQRQRPPRLSRYSVAHAQTRGTDPTVSGRWSALPAAEPDSTVRAHFQAELLLGRHGVLTKGAVGAEGVPGGFATLYKVLSTFEDAGRCQRGYFVESLGGAQFAVASTVARLRSYLDNVDPERPEYHAVVLAATDPANPYGAALGWPTDSEAHRPGRKAGALVALVDGRLVWFLERGGRSLLSFGADADAQRAAAGALTDLVSAGRIPSLLVERINGVAVLDPDVDAERAVVQDALLGAGLSRTPRGLRLR	4
Lhr-CTD (aa 863-1507) H1199A-R1206A-R1286A (domain or fragment, Mycobacterium smegmatis, UniProt A0QT91 863-1507, looked up) SPLAERRAAALALDTVLLSELLGRVELRELLDPAVVASTSAQLQHLTPERAARDAEGVADLLRLLGPLTEADIAQRCTADNIGAWLDGLHAAKRALPVTYAGQTWWAAVEDIGLLRDGIGVPVPVGVPAAFTESASDPLGDLIGRYARTRGPFTTEQTAARFGLGVRVASDVLSRMAVDGRLIRGEFAADLSGEQWCDAQVLKILRRRSLAALRAQVEPVSTDAYARFLPSWQHVGSTNTTGIDGLATVIEQLAGVPIPASAVESLVFPQRVRDYQPAMLDELLASGEVMWSGAGQIGNGDGWVAFHLADTAPLTLTHGAEIEFTDTHRVILETLGAGGAYFFAQLTDGTVEGTAGQELKQALWELIWAGWVTGDTFAPVRAVLSGPRRSGAPAHRQRQRPPRLSRYSVAHAQTRGTDPTVSGAWSALPAAEPDSTVRAHFQAELLLGRHGVLTKGAVGAEGVPGGFATLYKVLSTFEDAGRCQRGYFVESLGGAQFAVASTVDRLRSYLDNVDPERPEYHAVVLAATDPANPYGAALGWPTDSEAHRPGRKAGALVALVDGRLVWFLERGGRSLLSFGADADAQRAAAGALTDLVSAGRIPSLLVERINGVAVLDPDVDAERAVVQDALLGAGLSRTPRGLRLR	2
Full-length Lhr H1199A-R1206A-R1286A (natural protein, Mycobacterium smegmatis, UniProt A0QT91 1-1507, looked up) MTTNGADPLGRFSALTREWFTTAFAAPTPAQADAWSAISEGNNTLVIAPTGSGKTLAAFLWAIDRLADPAREPSQGTQVLYVSPLKALAVDVERNLRTPLTGITRVAERHGLPAPSITVGVRSGDTPPNQRRAMIANPPDVLITTPESLFLMLTSAARETLTSVRTVIVDEVHAVAATKRGAHLALSLERLDQLLDTPAQRIGLSATVRPPEEVARFLSGQAPTTIVCPPAAKTFDLSVQVPVPDMANLDNNSIWPDVEERIVDLVEAHNSSIVFANSRRLAERLTSRLNEIHAERSGIELPAGPNPEVGGGAPAHLMGSGQANGAPPLLARAHHGSVSKEQRAQVEDDLKSGRLRAVVATSSLELGIDMGAVDLVIQVEAPPSVASGLQRVGRAGHQVGEISQGVLFPKHRTDLIGCAVTVQRMQTGDIETLRVPANPLDVLAQHTVAVAALEPVDADAWFDAVRRSAPFATLPRSAFEATLDLLSGKYPSTEFAELRPRLVYDRDTGTLTARPGAQRLAVTSGGAIPDRGMFTVYLASETEKPSRVGELDEEMVYESRPGDVISLGATSWRITEITHDRVLVIPAPGQPARLPFWRGDSVGRPAELGAAVGAFTGELASLDRKAFDKRCQKMGFAGYATDNLHQLLREQREATGVVPSDTTFVVERFRDELGDWRVILHSPYGLRVHGPLALAVGRRLRERYGIDEKPTASDDGIIVRLPDSGDTPPGADLFVFDADEIEPIVTAEVGGSALFASRFRECAARALLLPRRHPGKRSPLWHQRQRAAQLLDIARKYPDFPIVLEAVRECLQDVYDVPALIELMHKIAQRRLRIVEVETATPSPFAASLLFGYVGAFMYEGDSPLAERRAAALALDTVLLSELLGRVELRELLDPAVVASTSAQLQHLTPERAARDAEGVADLLRLLGPLTEADIAQRCTADNIGAWLDGLHAAKRALPVTYAGQTWWAAVEDIGLLRDGIGVPVPVGVPAAFTESASDPLGDLIGRYARTRGPFTTEQTAARFGLGVRVASDVLSRMAVDGRLIRGEFAADLSGEQWCDAQVLKILRRRSLAALRAQVEPVSTDAYARFLPSWQHVGSTNTTGIDGLATVIEQLAGVPIPASAVESLVFPQRVRDYQPAMLDELLASGEVMWSGAGQIGNGDGWVAFHLADTAPLTLTHGAEIEFTDTHRVILETLGAGGAYFFAQLTDGTVEGTAGQELKQALWELIWAGWVTGDTFAPVRAVLSGPRRSGAPAHRQRQRPPRLSRYSVAHAQTRGTDPTVSGAWSALPAAEPDSTVRAHFQAELLLGRHGVLTKGAVGAEGVPGGFATLYKVLSTFEDAGRCQRGYFVESLGGAQFAVASTVDRLRSYLDNVDPERPEYHAVVLAATDPANPYGAALGWPTDSEAHRPGRKAGALVALVDGRLVWFLERGGRSLLSFGADADAQRAAAGALTDLVSAGRIPSLLVERINGVAVLDPDVDAERAVVQDALLGAGLSRTPRGLRLR	2
